Experimental data published in patent US20220119490A1 (Genentech, published 2022).

Key:
PTPRS expressed on cells = target: T1, PTPRS expressed on cells (human, UniProt Q13332 30-1948); assay: cell surface interaction assay: streptavidin-tetramerized biotinylated ECD on transfected cells, immunofluorescence
T1 construct: whole, on cells; also called receptor-type tyrosine-protein phosphatase S

PTPRD expressed on cells = target: T2, PTPRD expressed on cells (human, UniProt P23468 21-1912); assay: as above
T2 construct: whole, on cells; also called receptor-type tyrosine-protein phosphatase delta

[1] = target: T3, PTPRZ1 expressed on cells (human, UniProt P23471 25-2315); assay: cell surface interaction assay: query ECD tetramerised with fluorescent streptavidin on transfected cells, immunofluorescence
T3 construct: whole, on cells

PTPRG expressed on cells = target: T4, PTPRG expressed on cells (human, UniProt P23470 20-1445); assay: as above
T4 construct: whole, on cells
T4 sequence (P23470 20-1445): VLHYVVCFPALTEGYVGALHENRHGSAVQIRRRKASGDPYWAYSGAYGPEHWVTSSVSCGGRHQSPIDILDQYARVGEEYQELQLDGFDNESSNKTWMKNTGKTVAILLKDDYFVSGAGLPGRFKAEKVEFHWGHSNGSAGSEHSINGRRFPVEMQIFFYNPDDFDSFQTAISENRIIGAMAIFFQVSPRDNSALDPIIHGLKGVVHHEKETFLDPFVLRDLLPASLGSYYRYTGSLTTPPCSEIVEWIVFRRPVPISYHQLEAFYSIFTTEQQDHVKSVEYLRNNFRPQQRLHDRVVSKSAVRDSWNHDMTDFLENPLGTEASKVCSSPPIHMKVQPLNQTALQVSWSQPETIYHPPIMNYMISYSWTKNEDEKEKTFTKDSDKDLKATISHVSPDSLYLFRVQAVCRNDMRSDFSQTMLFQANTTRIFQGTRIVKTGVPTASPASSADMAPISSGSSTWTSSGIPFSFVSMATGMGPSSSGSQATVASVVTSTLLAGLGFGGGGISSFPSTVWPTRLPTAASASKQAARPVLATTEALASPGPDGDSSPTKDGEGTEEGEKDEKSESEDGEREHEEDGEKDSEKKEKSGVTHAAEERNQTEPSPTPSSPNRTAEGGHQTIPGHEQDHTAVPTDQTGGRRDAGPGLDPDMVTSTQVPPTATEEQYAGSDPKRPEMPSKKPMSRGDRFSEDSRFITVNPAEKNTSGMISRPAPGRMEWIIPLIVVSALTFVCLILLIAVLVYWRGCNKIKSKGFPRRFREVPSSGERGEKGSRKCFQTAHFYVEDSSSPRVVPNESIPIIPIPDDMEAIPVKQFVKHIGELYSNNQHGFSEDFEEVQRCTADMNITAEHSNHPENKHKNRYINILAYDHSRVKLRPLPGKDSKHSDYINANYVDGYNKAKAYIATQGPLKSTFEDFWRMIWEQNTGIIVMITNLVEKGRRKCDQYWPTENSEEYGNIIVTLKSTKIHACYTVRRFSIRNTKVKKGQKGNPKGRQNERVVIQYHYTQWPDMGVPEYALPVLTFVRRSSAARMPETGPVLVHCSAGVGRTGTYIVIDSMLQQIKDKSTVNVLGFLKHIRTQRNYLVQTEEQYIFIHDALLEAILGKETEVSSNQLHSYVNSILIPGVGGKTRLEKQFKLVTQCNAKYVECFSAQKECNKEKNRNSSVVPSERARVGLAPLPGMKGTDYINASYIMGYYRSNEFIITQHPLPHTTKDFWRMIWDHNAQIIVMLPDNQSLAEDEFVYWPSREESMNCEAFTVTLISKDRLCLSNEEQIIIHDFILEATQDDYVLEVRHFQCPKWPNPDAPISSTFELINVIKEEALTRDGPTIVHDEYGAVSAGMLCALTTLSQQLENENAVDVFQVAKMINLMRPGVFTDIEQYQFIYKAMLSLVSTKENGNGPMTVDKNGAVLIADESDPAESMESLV

PTPRM expressed on cells = target: T5, PTPRM expressed on cells (human, UniProt P28827 21-1452); assay: as above
T5 construct: whole, on cells
T5 sequence (P28827 21-1452): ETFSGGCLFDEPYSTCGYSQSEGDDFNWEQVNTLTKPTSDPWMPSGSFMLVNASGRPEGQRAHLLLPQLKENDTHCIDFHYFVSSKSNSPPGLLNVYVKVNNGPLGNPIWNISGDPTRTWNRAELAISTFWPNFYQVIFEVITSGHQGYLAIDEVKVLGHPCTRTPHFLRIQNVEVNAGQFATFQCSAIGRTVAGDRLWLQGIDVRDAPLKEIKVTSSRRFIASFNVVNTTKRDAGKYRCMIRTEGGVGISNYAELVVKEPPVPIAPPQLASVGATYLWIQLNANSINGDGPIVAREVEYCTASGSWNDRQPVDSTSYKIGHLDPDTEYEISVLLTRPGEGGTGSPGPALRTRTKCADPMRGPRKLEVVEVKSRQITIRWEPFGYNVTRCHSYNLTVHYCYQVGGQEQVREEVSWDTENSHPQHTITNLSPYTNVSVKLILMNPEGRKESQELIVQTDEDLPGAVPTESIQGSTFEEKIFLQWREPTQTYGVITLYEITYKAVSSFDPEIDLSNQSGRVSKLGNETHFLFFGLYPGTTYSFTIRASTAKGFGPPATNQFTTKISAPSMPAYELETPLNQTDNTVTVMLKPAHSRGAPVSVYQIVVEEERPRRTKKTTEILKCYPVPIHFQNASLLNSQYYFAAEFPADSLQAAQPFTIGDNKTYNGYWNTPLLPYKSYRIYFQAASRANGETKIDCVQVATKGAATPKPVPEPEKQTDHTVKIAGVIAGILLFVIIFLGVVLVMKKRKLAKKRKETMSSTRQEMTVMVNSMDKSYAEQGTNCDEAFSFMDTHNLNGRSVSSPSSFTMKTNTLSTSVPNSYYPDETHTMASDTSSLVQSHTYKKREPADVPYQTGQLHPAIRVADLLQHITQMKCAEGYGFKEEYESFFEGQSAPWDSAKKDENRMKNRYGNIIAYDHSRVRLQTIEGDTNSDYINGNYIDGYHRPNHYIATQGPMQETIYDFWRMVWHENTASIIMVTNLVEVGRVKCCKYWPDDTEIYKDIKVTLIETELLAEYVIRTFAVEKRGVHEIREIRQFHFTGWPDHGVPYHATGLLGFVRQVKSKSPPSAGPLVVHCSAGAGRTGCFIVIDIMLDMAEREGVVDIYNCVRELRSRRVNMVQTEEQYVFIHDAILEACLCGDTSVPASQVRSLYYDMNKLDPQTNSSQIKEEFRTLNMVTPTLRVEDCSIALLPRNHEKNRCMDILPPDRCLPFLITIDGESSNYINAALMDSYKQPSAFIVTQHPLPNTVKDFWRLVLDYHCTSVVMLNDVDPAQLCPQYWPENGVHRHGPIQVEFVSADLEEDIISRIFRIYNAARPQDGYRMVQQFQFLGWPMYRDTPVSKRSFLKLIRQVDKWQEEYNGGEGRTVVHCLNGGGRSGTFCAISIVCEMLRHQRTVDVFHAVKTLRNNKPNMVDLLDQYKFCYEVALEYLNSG

PTPRF expressed on cells = target: T6, PTPRF expressed on cells (human, UniProt P10586 30-1907); assay: as above
T6 construct: whole, on cells; also called receptor-type tyrosine-protein phosphatase F

PTPRT expressed on cells = target: T7, PTPRT expressed on cells (human, UniProt O14522 26-1441); assay: as above
T7 construct: whole, on cells
T7 sequence (looked up): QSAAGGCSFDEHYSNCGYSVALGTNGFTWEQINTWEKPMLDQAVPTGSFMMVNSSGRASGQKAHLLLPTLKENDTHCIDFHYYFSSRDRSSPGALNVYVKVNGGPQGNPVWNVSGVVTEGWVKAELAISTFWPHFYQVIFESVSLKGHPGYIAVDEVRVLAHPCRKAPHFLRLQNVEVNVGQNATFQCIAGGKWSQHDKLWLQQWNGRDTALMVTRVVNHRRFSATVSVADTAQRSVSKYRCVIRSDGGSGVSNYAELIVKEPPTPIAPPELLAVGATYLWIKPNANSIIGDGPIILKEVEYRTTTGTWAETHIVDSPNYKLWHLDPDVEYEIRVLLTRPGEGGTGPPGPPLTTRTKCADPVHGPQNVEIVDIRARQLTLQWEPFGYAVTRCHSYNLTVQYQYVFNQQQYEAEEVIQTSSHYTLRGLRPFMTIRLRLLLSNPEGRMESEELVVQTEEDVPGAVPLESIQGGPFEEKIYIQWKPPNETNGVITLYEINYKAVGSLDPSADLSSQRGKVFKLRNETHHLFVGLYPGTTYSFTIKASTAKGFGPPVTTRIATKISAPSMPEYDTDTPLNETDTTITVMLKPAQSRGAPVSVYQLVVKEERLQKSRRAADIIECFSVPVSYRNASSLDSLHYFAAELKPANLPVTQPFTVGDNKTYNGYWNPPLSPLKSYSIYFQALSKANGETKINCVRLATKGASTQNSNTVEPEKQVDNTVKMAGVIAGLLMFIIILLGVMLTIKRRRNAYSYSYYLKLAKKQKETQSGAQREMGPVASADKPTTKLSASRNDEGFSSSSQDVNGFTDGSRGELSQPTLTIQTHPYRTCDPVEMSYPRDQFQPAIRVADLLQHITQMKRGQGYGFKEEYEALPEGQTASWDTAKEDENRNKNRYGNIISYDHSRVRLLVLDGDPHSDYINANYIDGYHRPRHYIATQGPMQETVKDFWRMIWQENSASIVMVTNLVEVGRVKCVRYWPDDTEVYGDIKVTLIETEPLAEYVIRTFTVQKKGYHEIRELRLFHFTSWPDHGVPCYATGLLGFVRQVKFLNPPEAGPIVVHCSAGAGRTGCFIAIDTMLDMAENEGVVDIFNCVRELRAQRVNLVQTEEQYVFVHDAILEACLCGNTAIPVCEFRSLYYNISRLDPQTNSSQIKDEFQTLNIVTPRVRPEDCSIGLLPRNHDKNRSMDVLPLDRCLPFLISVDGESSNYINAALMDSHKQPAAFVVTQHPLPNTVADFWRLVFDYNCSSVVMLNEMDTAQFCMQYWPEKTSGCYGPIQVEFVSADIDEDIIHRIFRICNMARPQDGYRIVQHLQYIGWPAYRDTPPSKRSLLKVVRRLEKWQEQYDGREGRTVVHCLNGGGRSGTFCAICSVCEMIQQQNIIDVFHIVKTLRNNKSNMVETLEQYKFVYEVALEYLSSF

PTPRO expressed on cells = target: T8, PTPRO expressed on cells (human, UniProt Q16827 30-1216); assay: as above
T8 construct: whole, on cells
T8 sequence (looked up): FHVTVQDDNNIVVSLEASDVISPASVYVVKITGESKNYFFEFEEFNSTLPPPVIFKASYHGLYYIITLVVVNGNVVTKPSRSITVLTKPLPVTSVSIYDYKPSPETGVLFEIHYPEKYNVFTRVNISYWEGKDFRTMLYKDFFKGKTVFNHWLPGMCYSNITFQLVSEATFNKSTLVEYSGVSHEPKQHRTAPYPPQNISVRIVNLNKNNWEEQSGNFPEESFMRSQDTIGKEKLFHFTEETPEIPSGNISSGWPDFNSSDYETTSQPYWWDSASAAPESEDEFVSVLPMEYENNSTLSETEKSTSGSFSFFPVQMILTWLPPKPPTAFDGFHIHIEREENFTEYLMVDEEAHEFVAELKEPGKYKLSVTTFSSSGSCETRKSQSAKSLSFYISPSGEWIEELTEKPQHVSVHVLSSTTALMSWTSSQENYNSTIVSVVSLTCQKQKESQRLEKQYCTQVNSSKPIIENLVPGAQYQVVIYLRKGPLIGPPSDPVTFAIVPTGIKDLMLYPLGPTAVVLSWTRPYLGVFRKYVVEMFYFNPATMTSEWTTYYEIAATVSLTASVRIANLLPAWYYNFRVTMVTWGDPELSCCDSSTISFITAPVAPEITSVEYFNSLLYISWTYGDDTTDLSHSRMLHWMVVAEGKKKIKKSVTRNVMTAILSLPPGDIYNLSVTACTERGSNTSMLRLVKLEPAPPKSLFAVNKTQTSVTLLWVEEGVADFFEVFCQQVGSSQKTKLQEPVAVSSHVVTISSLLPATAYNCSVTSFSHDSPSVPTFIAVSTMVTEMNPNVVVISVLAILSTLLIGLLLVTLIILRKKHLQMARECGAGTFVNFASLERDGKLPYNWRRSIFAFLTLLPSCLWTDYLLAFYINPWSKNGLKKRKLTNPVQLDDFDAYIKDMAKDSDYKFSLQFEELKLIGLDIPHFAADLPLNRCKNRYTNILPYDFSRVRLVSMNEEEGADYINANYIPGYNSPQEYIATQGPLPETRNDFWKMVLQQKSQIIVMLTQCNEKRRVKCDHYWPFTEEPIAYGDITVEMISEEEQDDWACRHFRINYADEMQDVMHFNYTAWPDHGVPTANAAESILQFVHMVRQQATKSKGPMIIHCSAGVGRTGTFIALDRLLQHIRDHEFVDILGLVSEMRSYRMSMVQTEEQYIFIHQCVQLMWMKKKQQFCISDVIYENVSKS

[2] = target: T9, LRRC4B expressed on cells (human, UniProt Q9NT99 36-713); assay: as above
T9 construct: whole, on cells; C-terminally tagged in the co-IP; also called NGL-3; LRRC4B-FLAG
T9 sequence (looked up): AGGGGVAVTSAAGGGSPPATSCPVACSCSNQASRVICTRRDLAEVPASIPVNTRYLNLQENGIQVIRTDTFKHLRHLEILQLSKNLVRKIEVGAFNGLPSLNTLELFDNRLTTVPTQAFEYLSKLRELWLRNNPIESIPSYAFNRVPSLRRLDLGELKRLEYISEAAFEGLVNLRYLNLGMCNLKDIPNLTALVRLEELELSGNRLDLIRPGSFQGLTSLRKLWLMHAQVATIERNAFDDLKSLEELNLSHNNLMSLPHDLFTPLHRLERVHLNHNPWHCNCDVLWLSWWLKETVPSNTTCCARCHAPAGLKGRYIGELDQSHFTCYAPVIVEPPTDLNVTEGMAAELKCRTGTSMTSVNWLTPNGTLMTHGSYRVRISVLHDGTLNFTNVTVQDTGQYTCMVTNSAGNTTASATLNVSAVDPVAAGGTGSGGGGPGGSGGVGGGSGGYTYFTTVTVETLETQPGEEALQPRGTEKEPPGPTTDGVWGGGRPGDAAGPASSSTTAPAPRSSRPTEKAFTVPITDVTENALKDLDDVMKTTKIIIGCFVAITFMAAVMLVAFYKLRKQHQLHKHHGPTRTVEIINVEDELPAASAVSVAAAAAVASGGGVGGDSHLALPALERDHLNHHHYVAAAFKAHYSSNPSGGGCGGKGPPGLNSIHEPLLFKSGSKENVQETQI

[3] = target: T10, BTN3A1 full-length (co-IP) (human, UniProt O00481 30-513); assay: co-immunoprecipitation from co-transfected cells, IP anti-FLAG, western blot anti-HA
T10 construct: whole, on cells; also called BTN3A1-HA

T1 sequence (Q13332 30-1948): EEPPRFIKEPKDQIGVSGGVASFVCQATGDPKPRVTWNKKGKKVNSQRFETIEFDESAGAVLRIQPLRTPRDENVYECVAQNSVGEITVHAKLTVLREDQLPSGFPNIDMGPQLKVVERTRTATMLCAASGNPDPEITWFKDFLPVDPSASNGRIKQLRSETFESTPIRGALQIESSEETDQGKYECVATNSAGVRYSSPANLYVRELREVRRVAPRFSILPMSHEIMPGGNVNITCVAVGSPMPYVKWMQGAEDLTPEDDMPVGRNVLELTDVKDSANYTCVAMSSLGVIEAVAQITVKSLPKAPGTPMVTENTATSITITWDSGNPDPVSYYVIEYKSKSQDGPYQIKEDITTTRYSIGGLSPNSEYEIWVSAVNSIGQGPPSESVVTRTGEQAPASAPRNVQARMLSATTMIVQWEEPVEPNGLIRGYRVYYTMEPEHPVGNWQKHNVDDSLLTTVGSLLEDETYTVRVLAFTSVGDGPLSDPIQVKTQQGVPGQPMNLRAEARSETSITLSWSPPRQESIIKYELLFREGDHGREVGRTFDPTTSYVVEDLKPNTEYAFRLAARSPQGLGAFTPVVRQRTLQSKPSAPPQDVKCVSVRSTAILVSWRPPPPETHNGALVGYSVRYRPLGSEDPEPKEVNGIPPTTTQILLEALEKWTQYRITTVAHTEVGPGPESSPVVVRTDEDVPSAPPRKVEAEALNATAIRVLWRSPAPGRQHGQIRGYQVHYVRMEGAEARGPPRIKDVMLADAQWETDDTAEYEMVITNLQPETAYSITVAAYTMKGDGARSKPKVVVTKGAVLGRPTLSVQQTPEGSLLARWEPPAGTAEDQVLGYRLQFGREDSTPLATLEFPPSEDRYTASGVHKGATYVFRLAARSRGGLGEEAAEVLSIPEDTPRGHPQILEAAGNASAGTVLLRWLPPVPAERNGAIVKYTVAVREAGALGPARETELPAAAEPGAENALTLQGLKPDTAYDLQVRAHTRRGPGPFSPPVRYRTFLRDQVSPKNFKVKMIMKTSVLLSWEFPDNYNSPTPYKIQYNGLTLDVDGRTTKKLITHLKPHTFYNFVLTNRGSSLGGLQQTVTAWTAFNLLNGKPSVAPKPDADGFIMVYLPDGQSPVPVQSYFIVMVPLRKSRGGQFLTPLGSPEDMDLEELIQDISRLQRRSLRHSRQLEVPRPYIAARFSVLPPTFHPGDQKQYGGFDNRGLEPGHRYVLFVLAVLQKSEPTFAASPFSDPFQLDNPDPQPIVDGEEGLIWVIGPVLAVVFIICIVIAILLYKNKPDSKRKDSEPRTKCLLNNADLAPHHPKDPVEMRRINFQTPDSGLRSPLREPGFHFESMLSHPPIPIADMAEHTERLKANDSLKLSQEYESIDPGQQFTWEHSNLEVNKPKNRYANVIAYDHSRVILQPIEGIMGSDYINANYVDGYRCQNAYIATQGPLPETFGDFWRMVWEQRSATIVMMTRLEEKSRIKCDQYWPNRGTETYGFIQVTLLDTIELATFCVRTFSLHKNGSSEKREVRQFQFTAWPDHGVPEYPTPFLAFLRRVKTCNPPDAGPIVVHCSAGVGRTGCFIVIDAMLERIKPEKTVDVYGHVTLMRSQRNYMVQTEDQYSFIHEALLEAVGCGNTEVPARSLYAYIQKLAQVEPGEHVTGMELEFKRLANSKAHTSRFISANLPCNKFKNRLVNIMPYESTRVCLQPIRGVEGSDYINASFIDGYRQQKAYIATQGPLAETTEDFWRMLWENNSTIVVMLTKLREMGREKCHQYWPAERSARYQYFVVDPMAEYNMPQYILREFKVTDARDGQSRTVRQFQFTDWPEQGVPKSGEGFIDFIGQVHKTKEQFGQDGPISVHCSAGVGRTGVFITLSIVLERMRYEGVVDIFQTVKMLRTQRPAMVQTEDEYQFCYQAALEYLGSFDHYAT

B1: SLITRK2 extracellular domain (receptor, human, UniProt Q9H156 22-621, looked up)
chain: RKTAKDICKIRCLCEEKENVLNINCENKGFTTVSLLQPPQYRIYQLFLNGNLLTRLYPNEFVNYSNAVTLHLGNNGLQEIRTGAFSGLKTLKRLHLNNNKLEILREDTFLGLESLEYLQADYNYISAIEAGAFSKLNKLKVLILNDNLLLSLPSNVFRFVLLTHLDLRGNRLKVMPFAGVLEHIGGIMEIQLEENPWNCTCDLLPLKAWLDTITVFVGEIVCETPFRLHGKDVTQLTRQDLCPRKSASDSSQRGSHADTHVQRLSPTMNPALNPTRAPKASRPPKMRNRPTPRVTVSKDRQSFGPIMVYQTKSPVPLTCPSSCVCTSQSSDNGLNVNCQERKFTNISDLQPKPTSPKKLYLTGNYLQTVYKNDLLEYSSLDLLHLGNNRIAVIQEGAFTNLTSLRRLYLNGNYLEVLYPSMFDGLQSLQYLYLEYNVIKEIKPLTFDALINLQLLFLNNNLLRSLPDNIFGGTALTRLNLRNNHFSHLPVKGVLDQLPAFIQIDLQENPWDCTCDIMGLKDWTEHANSPVIINEVTCESPAKHAGEILKFLGREAICPDSPNLSDGTVLSMNHNTDTPRSLSVSPSSYPELHTEVPLSVL
notes: extracellular domain; Soluble query, streptavidin tetramer; also called SLITKR2
PTPRS expressed on cells
  binding result: binds
PTPRD expressed on cells
  binding result: binds
[1]
  binding result: no binding
PTPRG expressed on cells
  binding result: no binding
PTPRM expressed on cells
  binding result: no binding
PTPRF expressed on cells
  binding result: no binding
PTPRT expressed on cells
  binding result: no binding
PTPRO expressed on cells
  binding result: no binding

B2: BTN2A2 extracellular domain (receptor, human, UniProt Q8WVV5 33-265, looked up)
chain: QFTVVGPANPILAMVGENTTLRCHLSPEKNAEDMEVRWFRSQFSPAVFVYKGGRERTEEQMEEYRGRITFVSKDINRGSVALVIHNVTAQENGIYRCYFQEGRSYDEAILRLVVAGLGSKPLIEIKAQEDGSIWLECISGGWYPEPLTVWRDPYGEVVPALKEVSIADADGLFMVTTAVIIRDKYVRNVSCSVNNTLLGQEKETVIFIPESFMPSASPWMVALAVILTASPWM
notes: extracellular domain; Soluble query, streptavidin tetramer
[2]
  binding result: no binding

B3: VSIG8-FLAG (receptor, human, UniProt P0DPA2 22-414, looked up)
immunoprecipitated protein: VRINGDGQEVLYLAEGDNVRLGCPYVLDPEDYGPNGLDIEWMQVNSDPAHHRENVFLSYQDKRINHGSLPHLQQRVRFAASDPSQYDASINLMNLQVSDTATYECRVKKTTMATRKVIVTVQARPAVPMCWTEGHMTYGNDVVLKCYASGGSQPLSYKWAKISGHHYPYRAGSYTSQHSYHSELSYQESFHSSINQGLNNGDLVLKDISRADDGLYQCTVANNVGYSVCVVEVKVSDSRRIGVIIGIVLGSLLALGCLAVGIWGLVCCCCGGSGAGGARGAFGYGNGGGVGGGACGDLASEIREDAVAPGCKASGRGSRVTHLLGYPTQNVSRSLRRKYAPPPCGGPEDVALAPCTAAAACEAGPSPVYVKVKSAEPADCAEGPVQCKNGLLV
notes: full-length, tagged; also called VSIG8 full-length (co-IP)
[3]
  binding result: no binding
